Measured values: patent US11685901B2, “Compositions and methods for organoid generation and disease modeling” (Salk Institute for Biological Studies, priority 2016, dated 2023)

B1: rhWNT4: recombinant human (rh)Wnt4 protein (R&D Systems) (protein, UniProt P56705 23-351, looked up)
Protein Wnt-4: SNWLYLAKLSSVGSISEEETCEKLKGLIQRQVQMCKRNLEVMDSVRRGAQLAIEECQYQFRNRRWNCSTLDSLPVFGKVVTQGTREAAFVYAISSAGVAFAVTRACSSGELEKCGCDRTVHGVSPQGFQWSGCSDNIAYGVAFSQSFVDVRERSKGASSSRALMNLHNNEAGRKAILTHMRVECKCHGVSGSCEVKTCWRAVPPFRQVGHALKEKFDGATEVEPRRVGSSRALVPRNAQFKPHTDEDLVYLEPSPDFCEQDMRSGVLGTRGRTCNKTSKAIDGCELLCCGRGFHTAQVELAERCSCKFHWCCFVKCRQCQRLVELHTCR
B2: rhWNT5a: recombinant human Wnt5a protein (protein, UniProt P41221 62-380, looked up)
Protein Wnt-5a: IIGAQPLCSQLAGLSQGQKKLCHLYQDHMQYIGEGAKTGIKECQYQFRHRRWNCSTVDNTSVFGRVMQIGSRETAFTYAVSAAGVVNAMSRACREGELSTCGCSRAARPKDLPRDWLWGGCGDNIDYGYRFAKEFVDARERERIHAKGSYESARILMNLHNNEAGRRTVYNLADVACKCHGVSGSCSLKTCWLQLADFRKVGDALKEKYDSAAAMRLNSRGKLVQVNSRFNSPTTQDLVYIDPSPDYCVRNESTGSLGTQGRLCNKTSEGMDGCELMCCGRGYDQFKTVQTERCHCKFHWCCYVKCKKCTEIVDQFVCK

Tests used:
[1] = tested on: INS-1 cells; experiment: Proinsulin-NanoLuc Gaussia luciferase insulin secretion assay in INS-1 cells; assay type: cell-based, rat; details: INS-1 stably expressing Proinsulin-NanoLuc; G20 mM + 100 nM Ex4; 20 mM KCl
Experimental: INS-1 cells were infected with the virus by spinfection (800 g, 1 hour at 37 degrees Celsius) and then changed to fresh INS-1 growth media. Seventy-two (72) hours after transfection, INS-1 cells were treated with 5 μg/ml Blasticidin (Invitrogen) for 7 days to select for Proinsulin-NanoLuc expressing cells. For insulin secretion assay, the cells (5×10^4-1×10^5 cells/well in 96 well) were pre-cultured in 3 mM glucose KRBB (100 μl/well). The cells were then incubated in KRBB (100 μl/well) with 3 mM and then sequentially incubated with 20 mM glucose with or without 100 nM Exendine-4 or 3 mM glucose with 20 mM KCl (100 μl/well). To determine Gaussia Luciferase activity as indicator of insulin secretion levels, 10 μl of samples are used for Luciferase assay using Pierce Gaussia Luciferase Flash Assay Kit (Prod #16159, Thermo Scientific).

[2] = tested on: human islet-like organoids; experiment: Gaussia luciferase insulin secretion assay in human islet-like organoids; assay type: cell-based; details: 10 to 100 per assay
Experimental: Mouse islets, human islets and human islets like organoids were plated in their respective growth media with 10 μg/ml Polybrene® polymer (Santacruz). Viruses were then added. After overnight culture, cells were placed in fresh growth media. […] Then, insulin secretion assays were performed. […] The cells were then incubated in KRBB (100 μl/well) with 3 mM for 30 min and then sequentially incubated with 20 mM glucose with or without 100 nM Exendin-4 or 3 mM glucose with 20 mM KCl (100 μl/well). To determine Gaussia Luciferase activity as indicator of insulin secretion levels, 10 μl of samples are used for Luciferase assay using Pierce Gaussia Luciferase Flash Assay Kit (Prod #16159, Thermo Scientific).

[3] = tested on: human islet-like organoids; experiment: hIAPP toxicity, propidium iodide staining of islet-like organoids; assay type: cell-based
Description: FIG. 7 is a schematic showing modeling of human Type 2 diabetes in a dish. Generation of functional human organs such as a liver, pancreas, and islets provides new therapeutic strategies in drug-screening and modeling of human type 2 diabetes.
Generation of functional human organs according to methods described herein provides new strategies for drug-screening and disease modeling. Specifically, functional organoids can be used as models of type 2 diabetes for drug screening (FIG. 7).

[4] = tested on: hiPSC-derived islet organoids; experiment: Gene expression (qPCR) in hiPSC-derived islet organoids treated with WNT proteins; assay type: cell-based, human; details: for ERRγ-mitochondrial metabolic pathway: FIGS. 12A-12H; for Esrrg gene expression / expression of mitochondrial genes involved in oxidative phosphorylation (Cox7a2, Ndufa1, Ndufa7), lactate dehydrogenase (Ldha) and Fltp: organoids generated in the absence of hADSC or HUVECs, increasing doses rhWNT4 0-200 ng/ml, rhWNT5a 0-400 ng/ml
Experimental: Human PSCs, including iPSC or ESC, were initially cultured in matrigel-coated plates (2 dimensional (2D) cultures. Cells were then treated with Accutase (Innovative Cell Technologies, Inc., San Diego, Calif.) to generate a single cell suspension, washed with PBS and centrifuged at 1000-1300 rpm for 5 minutes to pellet cells. Cells were resuspended with 3DKG Stem TeSR™ Base Medium (Stemcell Technologies, Cambridge, Mass.) with 10 μM Y-27632 (a RHO/ROCK pathway inhibitor compound) and cultured for an additional for 5 to 7 days until PSC sphere growth reached 50-100 μm diameter. Media was then replaced with differentiation media supplemented with 0.015% Kelcogel and 0.3% Methylcellulose. The culture medium was changed to differentiation medium ([…]) containing 100 ng/ml human Activin (R&D Systems), 25 ng/ml recombinant human Wnt3a (R&D Systems) or 3 μM CHIR99021, a glycogen synthase kinase GSK-3 inhibitor (Axon Medchem, Reston, Va.; or Selleckchem) for 1 day and then to differentiation medium (S1) containing 100 ng/ml human Activin for another 2 days (Stage 1, Pancreatic Endoderm). Subsequently, the medium was replaced with differentiation medium (S2) containing 50 ng/ml FGF7 (R&D Systems) for 2 days, and then with differentiation medium (S3) containing 50 ng/ml FGF7, 0.25 μM SANT-1 (Sigma), 1 μM Retinoic Acid (Sigma), 100 nM LDN193189 (an ALK2 and ALK3 inhibitor, Sigma) and 100 nM α-Amyloid Precursor Protein Modulator TPB for 3 days. Subsequently, this medium was replaced with differentiation medium (S4) containing 0.25 μM SANT-1, 50 nM Retinoic Acid, 10 μM Alk5 inhibitor II, 1 μM T3 for 3 days. Subsequently, the medium was replaced with differentiation medium (S5) containing 100 nM LDN193189, 100 nM Gamma Secretase inhibitor XX GSiXX (Millipore) 10 μM Alk5 inhibitor II, 1 μM T3 for 7 days. Subsequently, the medium was replaced with differentiation medium (S5) containing 10 uM Trolox (Calbiochem), 2 μM R428 (Selleckchem), 1 mM N-acetyl cysteine, 10 μM Alk5 inhibitor II, 1 μM T3 for an additional 7 to 20 days. After confirmation of the insulin gene expression by either reporter expression or qPCR (typically on day 20-30), the medium was changed to differentiation medium (S5) containing 10 μM Trolox (Calbiochem), 2 μM R428 (Selleckchem), 1 mM N-acetyl cysteine, 10 μM Alk5 inhibitor II, 1 μM T3 and 100 ng/ml recombinant human (rh)Wnt4 (R&D Systems), 400 ng/ml rhWnt5a, or 50% Wnt5a conditioned medium for 1-20 days. Wnt5a conditioned medium was prepared by culturing an L-Wnt5a cell line (ATCC, CRL-2814) in DMEM with 10% FBS, 1% Penicillin-streptomycin for 4 days after cells had reached 70-100% confluence in T175-T225 Frasko cell culture flasks.
Total RNA was extracted using TRIzol reagent (Invitrogen) and RNeasy KIT (Qiagen). Reverse transcription was performed with a SuperScript III First-Strand Synthesis System kit (Invitrogen) or PrimeScript RT reagent kit (TAKARA). Real time quantitative RT-PCR (qPCR) was performed using SYBR Green (Bio-Rad).
(FIG. 12A). […] In addition, mitochondrial genes involved in oxidative phosphorylation (Cox7a2, Ndufa1, Ndufa7), lactate dehydrogenase (Ldha) and Fltp (a Wnt/planar cell polarity (PCP) effector and reporter gene) were induced in hiPSC-derived islet organoids that were generated in the absence of supporting hADSC or HUVECs, in response to increasing doses of rhWNT4 (0, 10, 25, 50, 100, 200 ng/ml) and rhWNT5a (0, 25, 50, 100, 200, 400 ng/ml), (FIG. 12C). Mitochondrial (Mitotracker; Mito-Red) and insulin (Insulin-GFP) levels were increased in hiPSC-derived islet organoids (day 27) after 8 days treatment with PBS or WNT4 (100 ng/ml). (FIG. 12D). Human iPSC-derived islet organoids (day 27) were generated after 8 days treatment with PBS or WNT4 (100 ng/ml). (FIG. 12E). […]

[5] = tested on: hiPSC-derived islet organoids; experiment: Fluorescence imaging and FACS analysis of hiPSC-derived islet organoids (Mitotracker, Insulin-GFP); assay type: cell-based, human; details: organoids day 27, 8 days treatment; for Insulin production (FACS): rhWNT4 100 ng/ml, rhWNT5a 400 ng/ml, conditioned media 50%, compared with PBS and control conditioned media
Experimental: FIGS. 12A-12H show a set of bar graphs and images illustrating the role of WNT proteins in the metabolic maturation of iPSC-derived islet organoids. […] FIG. 12B is a bar graph showing the induction of Esrrg gene expression in hiPSC-derived islet organoids, generated in the absence of supporting hADSC or HUVECs, in response to increasing doses of WNT4 (0, 10, 25, 50, 100, 200 ng/ml) and WNT5a (0, 25, 50, 100, 200, 400 ng/ml). FIG. 12C is a bar graph showing the induction of mitochondrial genes involved in oxidative phosphorylation (Cox7a2, Ndufa1, Ndufa7), lactate dehydrogenase (Ldha) and Fltp (a Wnt/planar cell polarity (PCP) effector and reporter gene) in hiPSC-derived islet organoids, generated in the absence of supporting hADSC or HUVECs, in response to increasing doses of WNT4 (0, 10, 25, 50, 100, 200 ng/ml) and WNT5a (0, 25, 50, 100, 200, 400 ng/ml). […] FIGS. 12F, 12G, and 12H show a set of bar graphs illustrating the results of FACS analyses of hiPSC-derived islet organoids (day 27) after 8 days treatment with PBS, WNT4 (100 ng/ml), WNT5a (400 ng/ml), control fibroblast conditioned media (50%), or WNT5a secreting fibroblast conditioned media (50%). The WNT proteins used were recombinant human (rh) proteins.
Human PSCs, including iPSC or ESC, were initially cultured in matrigel-coated plates (2 dimensional (2D) cultures. Cells were then treated with Accutase (Innovative Cell Technologies, Inc., San Diego, Calif.) to generate a single cell suspension, washed with PBS and centrifuged at 1000-1300 rpm for 5 minutes to pellet cells. Cells were resuspended with 3DKG Stem TeSR™ Base Medium (Stemcell Technologies, Cambridge, Mass.) with 10 μM Y-27632 (a RHO/ROCK pathway inhibitor compound) and cultured for an additional for 5 to 7 days until PSC sphere growth reached 50-100 μm diameter. Media was then replaced with differentiation media supplemented with 0.015% Kelcogel and 0.3% Methylcellulose. […]

[6] = tested on: hiPSC-derived islet organoids; experiment: Insulin secretion assay (human c-peptide ELISA) of hiPSC-derived islet organoids; assay type: cell-based; details: organoids day 22, 100 ng/ml for 12 days, G3 mM, G20 mM, KCL20 mM, without hADSC and HUVECs
Experimental: Insulin release from intact islets was monitored using batch incubation methods (Yoshihara et al., 2010, Nat. Commun. 1:127). Briefly, overnight-cultured isolated pancreatic islets (RPMI-1640 supplemented with 10% (v/v) fetal bovine serum and 1% (v/v) Antibiotic-Antimycotic (Gibco)) were pre-cultured at 37° C. for 30 min (Krebs-Ringer bicarbonate buffer (KRBB) containing 129.4 mM NaCl, 3.7 mM KCl, 2.7 mM CaCl2, 1.3 mM KH2PO4, 1.3 mM MgSO4, 24.8 mM NaHCO3 (equilibrated with 5% CO2, 95% O2, pH7.4), 10 mM HEPES and 0.2% (v/v) BSA (fraction V, Sigma) (KRBH) with 3 mM glucose). Pancreatic islets were then incubated in KRBH buffer (500 μl/10 islets) with 3 mM or 20 mM glucose to determine insulin secretion levels. After 30 min, islets were pelleted by centrifugation and insulin levels determined by ELISA (Rat/mouse Insulin ELISA KIT (Millipore) and Human Insulin ELISA KIT (Millipore) for mouse and human islets, respectively). For human iPSC derived cells, the cells (1×10^6 cells/well in 24 well) were pre-cultured in 3 mM glucose KRBH buffer (500 μl/well). The cells were then incubated in KRBB (200 μl/well) with 3 mM or 20 mM glucose to determine c-peptide secretion levels as indicator of insulin secretion levels. After 30 min, the cells were pelleted by centrifugation and c-peptide levels were determined by human c-peptide ELISA KIT (Millipore).

Molecule | Luciferase secretion (insulin secretion) [1] | stimulated insulin secretion of pooled organoids (secreted luciferase) [2] | ERRγ-mitochondrial metabolic pathway [4] | Esrrg gene expression [4] | expression of mitochondrial genes involved in oxidative phosphorylation (Cox7a2, Ndufa1, Ndufa7), lactate dehydrogenase (Ldha) and Fltp [4] | Insulin production (FACS) [5] | other results
[Cl-].[K+] [potassium chloride] | increased | robust |  |  |  |  | 
Exendin-4 | increased |  |  |  |  |  | 
GLP-1: incretin |  | enhanced GSIS |  |  |  |  | 
hIAPP: human amyloid polypeptide, an inducer of β cell loss in type 2 diabetic patients (KCNTATCATQRLANFLVHSSNNFGAILSSTNVGSNTY; Islet amyloid polypeptide; UniProt P10997 34-70, looked up) |  |  |  |  |  |  | G0/G1 arrest ([3]; 24 hours): dose-dependently induced G0/G1 arrest; apoptosis (propidium iodide staining in G0/G1 stage cells) ([3]; increasing concentrations): induces apoptosis
B1 |  |  | activate | induced | induced | found | Mitochondrial (Mitotracker; Mito-Red) and insulin (Insulin-GFP) levels ([5]; 100 ng/ml): increased; functional maturation based on secretion of human c-peptide ([6]; listed as Wnt4): sufficient to induce in vitro functional maturation; functional maturation based on secretion of human c-peptide ([6]; listed as rhWnt4): functional maturation
B2 |  |  | activate | induced | induced | found | 
